{"source": "a protein production outcome set (Wang et al. 2014)"}
{"assay": "label from the status in PepcDB records"}
{"sequence": "MIWIILASFLMYSIFVMWFSWYKTRGTDLSSSDGYFLGGRSLTGIVIASSLILTNLSTEQVVGLNGQAFGESMVVMAWEVTAPIALILMAFVFLPRYLKLGITTIPDFLEQRFDLRTRQIVSVLFLLGYATVFLPTVLYSGALVIDSIFSLSSVMDISPFMIVLCISIAIGIISCGYVILGGLKACAMSDTINGIGLIIGGLLIPILALFVLGRGDFASGVGELVSANPTKLNAIGNDQASVPWAVLLTGLLFNNLFYWCTNQSIIQRTLAAKNLAEGQKGVLFAGMFKIFGAAFLVLPGIIAYLLYGDVLANADMAYPSLVIDVMPVALSGFLAAVLFGAILSSFNNVLNSSITLFTLDIYKPIFKPNAKEPELVKAGRIFAACLAITAVVIAPFILYAPQGLYYFLQEMNGFYSLPIIAMVIVGFFSKYVPASAPKVLVAVHVVLYAGSKVVLGEVNFLYVLSVLFPINVLVMLIVGRLKPRETSFVLPTANKVDLTPWKYAKPFSAFILLTMLGVYTFFSPLGVAESSGGYTIYQFIFFIVTLAFIGGVVLFWKKTDRIRGGRVPLNQMYPFNQKSG", "protein production": "failed"}
{"sequence": "MIWMAEIEGIYTIWLREMKRFFRYRSRIVTSIVTPLLWLIIFGTGLGAAVRFGGVPGGYKAFIYPGIIGQTVLFTSIFSGVSVIIDRQYGFLKEILVAPISRESMVVGKALGISTASMIQAAILLALSFIVGITMSPQCFIVSMVIALIISMGLGGLGLVIAAFTDSMEGFNLIMSFIVLPIFLLSGALFPITGLPAWLQGAVYINPLTYAVDALRFTILRRSVLPLEVNLLVITIFAVIAVLIAAFLFNRKEQNLM", "protein production": "failed"}
{"sequence": "MIYFIRKKKWLKQLEKGEAMKYAILIGDGMADYPIEKLGNRTILQAARTPAMDSIAARGRAGLAKTVPDSFPPGSDVANMSILGYDPATYYSGRAPLEAASMGVALAADDVAFRCNLITTEHGMIKDYSAGHISSDEAEILIDTLDYELSTENIRFYPGISYRHLIVAGNNLGAETECTPPHDITGEKIDKYLPRGKDGEFFSELIEASKVVLELHPVNLKRVEEGKNPANSIWVWGQGYAPKFTAFMKLYGKKGAVISAVDLLKGIGIYAGLDVIEVHGATGYLDTNYEGKVRAAIEALKTRDLVFVHVEAPDEAGHEGSIEKKLKAVEDFDSRIVAPILEYAENSDEPFTILVLPDHPTPISVKTHTRDPIPFAIYRTDKPETDNVEAFDEESVKNGSMGLVKASDLIGILIKS", "protein production": "failed"}
{"sequence": "MIYLRKANERGHANHGWLDSWHTFSFANYYDPNFMGFSALRVINDDVIEAGQGFGTHPHKDMEILTYVLEGTVEHQDSMGNKEQVPAGEFQIMSAGTGIRHSEYNPSSTERLHLYQIWIMPEENGITPRYEQRRFDAVQGKQLVLSPDARDGSLKVHQDMELYRWALLKDEQSVHQIAAERRVWIQVVKGNVTINGVKASTSDGLAIWDEQAISIHADSDSEVLLFDLPPV", "protein production": "not failed"}
{"sequence": "MIYQPDENRYHTMEYRRCGRSGVKLPAISLGLWHNFGDTTRVENSRALLQRAFDLGITHFDLANNYGPPPGSAECNFGRILQEDFLPWRDELIISTKAGYTMWDGPYGDWGSRKYLIASLDQSLKRMGLEYVDIFYHHRPDPETPLKETMKALDHLVRHGKALYVGISNYPADLARQAIDILEDLGTPCLIHQPKYSLFERWVEDGLLALLQEKGVGSIAFSPLAGGQLTDRYLNGIPEDSRAASGSRFLKPEQITADKLEKVRRLNELAARRGQKLSQMALAWVLRNDNVTSVLIGASKPSQIEDAVGMLANRRFSAAECAEIDAILEGRF", "protein production": "failed"}
{"sequence": "MKAALHNLGCKVNSYETEAMEQMLIAAGYEIVPFCEDEKADVYVINTCSVTNIADRKSRQMLHKAKKQNPNAIVVAAGCYVQARGDELAADDMVDIVIGNNRKNRLVEIINDYIGNNSNNEAVVDIAKTHEYEELNIYDVCEHTRAYIKVQDGCNQFCSYCIIPYTRGRVRSRRPEDVTAEVRRLVEKGYKEFILAGIHLSSYGIDFEAPCDEAVDYRAANMPGSRLLELIEAVCSVEGVKRLRLGSFEPRILTEAFVKRMAELEPVCPHFHISLQSGCDATLKRMNRRYTADEYEESCKLLRKYFPNAAITTDVIVGFPQETDEEFAITKEYLERIHFYEMHVFKYSRRKGTAADRMDGQVPEPVKTARSAGLLELEKRMSREYRESALGSIQEVLFEEVAGTCDDCGTSVITGHTKTYINVHVKLPADMSLEYINKICNVKLEHLSDDGEWVNGTLCG", "protein production": "failed"}
{"sequence": "MKAALWMAGWLALMVIVAVAGRETLRELSVFQVMELRSVIGFAMLYPLIHKFGGLTAMATARPLAHLSRNLVHYAAQLGWFYALTLISIGQVVSIEFTMPIWIAILAATFLGEHMNVWKITAVVLGLIGVVVIVRPATSSIEPGQLIALGAAVGFGISVTLMKSLTRTESTLAIIFWMLLIQSAAGLVPALWLWQWPSAYVWVWIVIIAFCGTFSHYCMARALTYADATIVVPMDFLRVPLSATAGWLIYGERLDAYTVIGAALILIGNLLNLRGAPRPPAAASIRNSP", "protein production": "failed"}
{"sequence": "MKAEKNLNKTLKISYKALFFSFALTLIKLLAGFLGNSTALIADSIRSFSELINELKKLLEVFIASKPEDWSHNYGHGKVATLFTGAGACILLFAGIESISLASQELLIFIQGRETEAPEILALSAASLTLVSREIIPLFSSKGKEIEGTLSGTGIYTRNAQIRSLLLSCFVTLGIGCTFLPGKNWVVTDSFIAALMSLYLLGTSGKLLYGTANELIEASLDEEDNKKIRKIINTTEGVTGSGELKTRKIGNGIAINACITVSDSLNIQEVAEIADRVENRLKTVYGEDIYALVKAEPDPGRNCSFRKKMEFSEEGRKENKGINTQDKMLA", "protein production": "failed"}
{"sequence": "MKAIIMAGGEGSRLRPLTCKRPKPLVPVANRPVMEYCVDLLRELGIKEVGVTLQYLPQLIEEYFGDGSDFGLHLHYFVEDKPLGTAGSVKNAAAILDETFVVVSGDALTDFDLRPAIARHKESGALATLVLTAVDNPLEYGVVITNPDGSIRSFLEKPSWGEVFSDRVNTGIYILEPEVLELIPEGRPFDFSKDLFPRLLKEKRPLYGVTLSGYWCDIGNLTQYRQAQEDILRGRVKVRVVGQDKGGGVVMGEGVEIAPGARIEGPVLIGGACHIATGAVVGPFTVLGPYTRVEEGATVRRSVLWDNVYTGEGANVRGAVVCSRASLQRRVQVYEGAVIGDGTQVDAGAEVRPEVKVWPEKTLGRETVVHESLIWGRGVARPLFVGSQAPGYLHGDLTPFQVTRLGMAYGASFPPGTTVGLSTFAGGAGEMLYKALAAGLMAAGVQVADLGRLLTPIHRFAVRSLGLDGGCHIKRDAAERDKVWLHLVNSRGHDLNPAAVRKIENLYWREDGRRVQEVPASIYFPGLEGAYRDWLLATLGDHGLKKRALRVALGGQGQVAGVAGTILQDAGAEVIRLDLDPAKTWQAVQEDLPYFAGEIRRYGADLGAALDSNGEELILFTGEGRRVAPAQQMTLLARVYLETHRGASLVLPVTAPRVLEQVAGGLHGRVERVKGHPGIYHEAMARADGETALGQQHLQLDALAALVHILDWLASREESLDSAVAALPPVYTASRTVACPWEAKGRVMRTLISEEPADGVELLDGVQVRHGKGWSLVLPDGETPHYHIYSEAFSQEAAEELAGFYEERLKELIAREKSKGR", "protein production": "failed"}
{"sequence": "MKAIITVVGKDKSGIVAGVSGKIAELGLNIDDISQTVLDEYFTMMAVVSSDEKQDFTYLRNEFEAFGQTLNVKINIQSAAIFEAMYNI", "protein production": "not failed"}
{"sequence": "MKAILRASRIGRVILRYRLDALLEGTPAERWLRLAKPFVPRASAEIAAQSRGARLRLALQELGPIFVKFGQILSTRRDLIPADVAEELTLLQDRVKPFDGQAARLIVEAALGLPVSVAFASFDTVPLASASIAQVHAATLPPDANGVRREVVVKVLRPEIERQIDADIALLHSLATLVERTHPRADKIRPREVVAEIEGTLAAELDLQREGANASVLRRFWEGSDDLYVPEVIWSHTAERALTLERVYGIPSDDIAKLDAAGIDRKALAAKGVRVFYTQVFRDNFFHADAHAGNIWVDSDPERRLNPRFIALDFGIMGQLSQEDQYYLAENFMAIFHKDYRRMAELHVEAGWMPSNVRIDELEAAARSVCEPYFNRPLSEISLAQVLIKLFRVAQRYELTLQPQLILLQKTLLNIEGVGRQLDPRLDIWAVARPVLERILRERYSPRRVLRELSKRLPEIMTHAPDMPRLVYSWLTQQVEGRHQIAIRSPELLALDLSLRKLQTRVVTAITGSGLLVVAAVLYGLHPDGWYLGTVPVWSWISGGAGSAALLVAWLRR", "protein production": "failed"}
{"sequence": "MKAKIYYNGNIITMEDSICGDAILIKDKIIKKIGTKEEVFALKNKDTEIIDLQGKTLMPSFIDSHSHLIAFATTLKLVPLEDATSFKDIVKKIQDFKESLEHHHHHH", "protein production": "failed"}
{"sequence": "MKAKPLSQDPGSKRYAYRINKEENRKELKHVKINESSLVQEGQKIDLPKKRYYRQRAHSNPFSDHQLEYPVSPQDMDWSKLYPYYKNAENGQMTKKVTIADIGCGFGGLMIDLSPAFPEDLILGMEIRVQVTNYVEDRIIALRNNTASKHGFQNINVLRGNAMKFLPNFFEKGQLSKMFFCFPDPHFKQRKHKARIITNTLLSEYAYVLKEGGVVYTITDVKDLHEWMVKHLEEHPLFERLSKEWEENDECVKIMRNATEEGKKVERKKGDKFVACFTRLPTPAIL", "protein production": "failed"}
{"sequence": "MKAKSLMVVGTTSHAGKSLLAAVICRWLAQQGYRVTPFKGQNMALNAYVTREGGEIGYAQAMQAWAAGIEPEVAMNPILLKPQGNMTSQVILRGQVVGVTRAADYYRDYFERGWQAITEALADLQQRFDWIVCEGAGSPAEINLKHRDLTNMRVATYLGAPTILVADIDRGGVFAHIVGTLMLLEPAERALIQGIVINKFRGQRSLLDSGLQWLEETTGVPVLGVIPWLERHYAAEDSLDLWDPRPQRQGADLKITVIRLPRIANFTDIDPLLAEPSVAVEFLPPHRPLGRPDAVILPGTKTTIADLQVLRETGMAEQLKTYAAQGGTILGICGGWQMLGTAISDPLGLEGCPGTYEGLGLMPLHTQLGPTKCTQQQQTQSLYFNCPEPILGYEIHQGQSEYTGDRQGWHPLFAAPELGLVNRAGTLWGTYLHGLLENGPWRRHWLNGLRSRRQLPPLPTAIPHYGEQRTVALDELTKTVMAHLNLRGICKLC", "protein production": "failed"}
{"sequence": "MKALHFGAGNIGRGFIGKLLADAGIQLTFADVNQVVLDALNARHSYQVHVVGETEQVDTVSGVNAVSSIGDDVVDLIAQVDLVTTAVGPVVLERIAPAIAKGLVKRKEQGNESPLNIIACENMVRGTTQLKGHVMNALPEDAKAWVEEHVGFVDSAVDRIVPPSASATNDPLEVTVETFSEWIVDKTQFKGALPNIPGMELTDNLMAFVERKLFTLNTGHAITAYLGKLAGHQTIRDAILDEKIRAVVKGAMEESGAVLIKRYGFDADKHAAYIQKILGRFENPYLKDDVERVGRQPLRKLSAGDRLIKPLLGTLEYSLPHKNLIQGIAGAMHFRSEDDPQAQELAALIADKGPQAALAQISGLDANSEVVSEAVTAYKAMQ", "protein production": "not failed"}
{"sequence": "MKALSPVRGCYEAVCCLSERSLAIARGRGKGPAAEEPLSLLDDMNHCYSRLRELVPGVPRGTQLSQVEILQRVIDYILDLQVVLAEPAPGPPDGPHLPIQTAELAPELVISNDKRSFCH", "protein production": "failed"}
{"sequence": "MKARLLIVVAVLALTACATTTSPTGRRQVVGGVSQQQLDQLGAQSFAQTKAKEKVSTDGKQNAYVQCVVNALVAQLPPQWRETKWETALFVDNEANAFALPGGKVGVNTGIFTVAKTQDQLAAVLGHEIGHVISRHHEERITRQLGAQTGLGIIGALAGAAYGDGAASAVNQVGGMTAQTVFLLPGSRTQESEADVVGQRLMAQAGFDPAQAVTLWQNMMAASGNRQPQWLSTHPDPANRIRELQADVAQLEPVYQQAKQSGRAPRCG", "protein production": "failed"}
{"sequence": "MKATLFVREFLLNPRTIGAILPSSDYLAEKMMASVCFEQAKYIIEYGPGTGVFTDKILRYRHPDTVVMIIEHNREFFCILNEKYQDEKNVIIINGSAEHIETYVKEHNIPFVDYIISGLPFASLPLHVSNAILNKARYLLGVKGKFITFQYTQTKVRLFTQFFNQMTVERVYRNLPPAFVFSCYNEKLEHHHHHH", "protein production": "not failed"}
{"sequence": "MKAVANRYYVLCQEKVFIRSLLSGFFLLFISFLIMNFAGKYASLMAGNPVNDLILDNLPLRDVTLFHVNAAIIFWTIFTIYTLLNPAFIPFITKSAALFILIRCAFISMTHLGAPPNQLSIPDNFSSLVLFDGDLFFSGHVGGPFLMMLIFWNKTTLRYICLAAAVFFAYTVLIGHIHYSIDVFAAPFITYGIFHIGQFLFASDYQRLKSELTSSTGN", "protein production": "failed"}
